Laboratory results from US20190247432A1 (published 2019).

Target: T1, NY-ESO-1 (the LAGE-1S transcript variant shares the same epitope) peptide on HLA-A*02:01 (human)
T1 peptide: SLLMWITQC
Assay: multimer staining

B1: 8F NY-ESO-1 TCR (TCR, V domains shown)
Valpha: EEDPQALSIQEGENATMNCSYKTSINNLQWYRQNSGRGLVHLILIRSNEREKHSGRLRVTLDTSKKSSSLLITASRAADTASYFCATDGAGKSTFGDGTTLTVKP
Vbeta: VIQSPRHEVTEMGQEVTLRCKPISGHDYLFWYRQTMMRGLELLIYFNNNVPIDDSGMPEDRFSAKMPNASFSTLKIQPSEPRDSAVYFCASTIGAQPQHFGDGTRLSIL
- binding result: recognises
